Assay: yeast display, Sf9 membrane polyspecificity reagent, FACS + sequencing; frameworks hold sequencing errors
In short: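 A synthetic nanobody library was expressed on Saccharomyces cerevisiae BJ5465 by galactose induction for 36–48 hours. The library was stained for 1 hour at 4 °C with 10% biotinylated, detergent-solubilized Sf9 membrane reagent and enriched with streptavidin microbeads before FACS. Low and high (top ~1%) gates were set on anti-HA fluorescence for expression and streptavidin fluorescence for reagent binding, and each polyreactivity label reflects the gate of origin.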

Row | Sequence | polyreactivity (PSR sort gate)
1 | QVQLVESGGGLVQAGGTLRLSCSASGGTIAIYAMGWYRHARGKEREMVARISYSSGSTHYADSVKGRFTISRDNAKNTVFLQMNSLKPEDSAVYYCAATAYWFYAKDYYWGQGSQVTVSS | high polyreactivity
2 | QVQLVESGGGLVQAGGSLRLSCAASGSIFGGYAMGWSRQAPGNERELVASISISGGSTYYADSVKGRFTISRDNAKNTVYLQMNRLKPEDTAGYYCATDRTTTLNSPYGDPDRDDYWGQGTQVTVSS | low polyreactivity
3 | QVQLVESGGGLVQAGGSLRLSCAASGSILSYYAMGWYRQAPGKERELVAAITGGGSTYYADSVKGRFTISRDNAKNTVYLQMNCLKPEVTAVYYCAALWWTYGIGYGYWGQGTLVTVSS | high polyreactivity
4 | QDQLVESGGGLVQAGGSLRLSCAASGSTFTTNVMGWYRQAPGKERELVAAISWSSGSTYYADSVKGRFTISRDNAKNTDYLQMNSLKPEDTAVYYCAARLVIFYPYSRYYYWGQGTQVTVSS | high polyreactivity
5 | QVQLVQSGGGLVQEGGSLRLSCYASGRIFSIYTLGWYRQAPGKERELVAAIRWSGGSTYYADSVKWRLTISRDNAKNTVYLQMNSLKPEDTAVYYCARQSVLGYRSYGPFPKYYYWGQGTQVTVSS | high polyreactivity
6 | QVQLVESGGGLLQAGGTLRLSCAASGITFWSYAMGWYRQAPGKERELVAAITIGGTTYYADSVKGRFTSSRDNAKNTVYLQMNSRKPEDTAVYYCAVDSTDQAPPTYDYWGQGTQVTVSS | low polyreactivity
7 | QVQLVESGGGLVQAGGSLRLSCAASGRIFYYYAMGWYRQAPRKERELVAAISWSDDSTYYADSVKGRFTISRDNAKNTVYLQMNSLKPEDTAVYYCAADSIHYQFDYWGQGTQVTVSS | low polyreactivity
8 | QVQLVESGGGLVQAGGSLRLSCAASGRIFNLYAMGWYRQAPGKERELVAAISWGGGRTYYADSVKGRFTISRDNAKNTVYLQMNSLKPEDTAVYYCNAVYSPRYYVGGYDYWGQGTQVTVSS | high polyreactivity
9 | QVQLVESGGGLVQAGGSLRLSCAASGRILYYYAMGWSRQAPGKERELVAGITTDDSTNYADSVKGRFTISRDNAKNTVYLQMNSLKPEDTAVYYCAAKYVHGEYDYWGQGTQVTVSS | low polyreactivity
10 | QVQLVESGGGLVQAGGSLRLSCAASGSTFSYYAMGWYRQAPGKEMELVAAIRSGGSTYYADSVKGRFTISRDNAKNTVYLQMNSLKPEDTAVYYCNADYIRASTLKYGTIYYWHYDYWGQGTQVTVSS | high polyreactivity
11 | QVQLVESGGGLVQSGGSLRLSCAASGYIFGVNAMGWYRQAPGKERELVAAIDSGSRTYYADSVKGRFTISRDNAKNTVYLQMNSLIPEDTAVYYCATNFYVSYGGGYYTIWYDYWGQGTQVTVSS | low polyreactivity
12 | QVQLVESGGGLVQAGGSLRLTCAASGSIFRTNTMGWYRQAPGKVRELVAAITAIGDSTYYADSVKGRFTISRDNANNTVYLQMNSLKPEDTAVYYCAAEKVSWGYHFYSSYDYWGQGTQVTVSS | low polyreactivity
13 | QVQLQVSGGDLVQAGGSLRLSCEASGTIYGLTSMGWYRQAPGKEREFVAAITDGGNTNYADSVKGRFTISRDNAKNTVYLQMISLKPEDTGVYYCAVLFSDDAYYAYWGQGTQVTVSS | low polyreactivity
14 | QVQLVESGGGLVQAGGSLRLSCAASGFTFAYYAMGWDRQAPGKERELVAAINWSGTRTSYADSVKGRFTISRDNAKNTVYLQMNSLKPEDTAVYYCAADSSLRYDYWGQGTQVTVSS | high polyreactivity
15 | QVQLVESGGGLVQAGGSLRLSCAASGFIFKSYAMGWYRQAPGKERELVAGITRRGGSTYYADSVKGRFTISRDNSKNSVYFQMISLKPEDTAVYYCNAGRKTADYDYWGQGTQVTVSS | high polyreactivity
16 | QVQLVQSGGGLVEAGGSLRLSCAASGSNFWANAMGWYRQAPGKERELVAGITLNGGLTYYADSVKGRFTISRDNAKNTVYLQMYSLKPEETEVYFCAAAYPTDRHYYWGLGTQVTVSS | low polyreactivity
17 | QVQLVESGGGLVQAGGSLRLSCAASGSILYVYAMGWYRQAPGKERELVATITGRVVSTNYADSVKGRFTISRDNAKNTVYLQMNSLKPEDTAVYYCAARTRRRRGEYDYWGQGTQVTVSS | high polyreactivity
18 | QVQLVESGGGLVQAGGSLRLSCAASGNTFQRYTMGWYRQAPGKERELVAAITWSGGNTYYADSVKGRFTISRDNAKNTVYLQMNSLKPEDTAVYYCATYYWLGLSLYDYWGQGTQVTVSS | low polyreactivity
19 | QVQLVESGGGLVQAGGSLRLSSASSGFTFSYYAMGWSRPAPGKERELVAAITSDGGRTYYADSVKGRFTISRDNAKNTVYLQMNSLKPEDTAVYYCAARTRYRGIKGYNYWGQGTQVTVSS | high polyreactivity
20 | QVQLVESGGGLVQAGGSLRLSCAASGFTFWRYAMGWYREAPGKERELVAAITGLGRTNYADSVKGRFTISRDNAKNTVYLQMNSLKPEDTADYYCNVVRVYRYDYWGQGTQVTVSS | high polyreactivity
21 | QVQLVESGGGLVQAGGSLRLRCAATGFISVTYAMGWYRQAPGKERELVAAITYSGGSTYYADSVKGRFTISRDNAKNTVYLQMNSLKPEDTAVYYCATEPQSDYSYDYWGQGTQVTVSS | low polyreactivity
22 | QVQLVESGGGLVQAGGSLRLSCAASGRIFTGNAMGWYRQAPGKERELVAAISASGGRTYYAYSVKGRFTISRDHAKNTVYLQMNSLKPEDTAVYYCAKVGRTAYTSTYTGVSAYDYWGQGTQVTVSS | high polyreactivity

Row | Sequence | polyreactivity (PSR sort gate)
23 | QVQLVESGGGFVQAGGSLRLSCAASGSTFFVYAMGWYRQAPGKERELVASIRWRGSSTYYADSVKGRFTISRDNAKNTVYLQMNSLKPEDTAVYYCAATSYNGYGYWGQGTQVTVSS | high polyreactivity
24 | QVQLVESGVGLVQAGGSLRLSCASSGFIFDTYAMGLYRQAPGKERELVAVISSGGSTYYADSVKGRFTISRDNAKNTVYLQMNSLKPEDTAVYYCAADSGYLGIYGDEYSWGQGTQVTVSS | low polyreactivity
25 | QVQLVESGGGLVQAGGSLRLSCAASGNIFGNNAMGWYRPEPGKERELVAAISSSGTSTYYADSVKGRFTISLDNAKNTVYLQMNSLKPEDTAVYYCNADPLPYDGYYDYDYWGQGTQVTVSS | low polyreactivity
26 | QVQLVESGGGLVQAGGSLRLSCAASGSTFDPNALGWYRQAPGKERELVAAISYTGGRTYYADSVKGRFTISRDNAKNTVYLQMNSLKPEDTAVYYCAVLVVGSTTQDEPYFSGVEHDYWGQGTQVTVSS | low polyreactivity
27 | QVQLVESGGGLVQAGGSLRLSCAASGRIFLVNAKGWYRQAPGKERELVAAITYSGRSTYYAYSVKGRFTISRDNAKNTVYLQMNSLKPEDTSLYYCAALHHTQHDYWGQGTQVTVSS | low polyreactivity
28 | QVQLVESGGGLVQAGGSLRLSCAASGSTFVYYDMGWYRQAPGKERELVAAITNGGNTYYADSVKGRFTISRDNAKNTVYLQMNSLKPEDTAVYYCAKLYTDAIVWSAYDYWGQGTQVTVSS | low polyreactivity
29 | QVQLLESGGGLVQAGGSLRLSCMASGSILGDRMSWYLQPPGKEHELVATIYDGGITYYADSMKGRFTISRDNAKNTVYLQMNSLRPEDTAVYYCGASFEGYRYNVYCGQGTQVTVSS | low polyreactivity
30 | QGQLVESGGGLVQAGGSLRLSCAATGLIFDTNAMGWYRQAPGKERELVAAINSTGSTNYADSVKGRFTISRDNAKNTVYLQMNSLKREDTAVYYCAVEYDSSAQPRTEFDYWGQGTQVTVSS | low polyreactivity
31 | QVQLVESGGCLVQAGGSLRLSCAASGIIFSGYAMGWYRQAPGKERELVAAISSRGGGPYYADSVKGRFTISRDNAKKTVYLQMNSLKPEDTAVYYCNRVAFTYNYWGQGTQVTVTS | high polyreactivity
32 | QVQLVVSGGGLVQAGGSLRLSCAASGSIFAQNVMGWYRQAPGKERELVAAISYCGGTTYYADSVKGRFTISRDNAMNSVYLQMNSLKPEDTAVYYCAAEFGVYEYDYWGQGTQVTVSS | low polyreactivity
33 | QVQLVESGGGLVQAGGSLRLSCAASGRTFKQYAMGWYSQAPGKERELVAAISRTGGRTYYADSVKGRFTISRDNAKNTVYLQMNSLKPEDTAVYFCNAVYYWYKGDYWGQGTQVTVSS | high polyreactivity
34 | QVQLVESGGGLVQAGGSLRLSCAASGSIFTSNDMGWYRQAPGKERELVAAITNSGGSTYYADSVKGRFTISGDNAKNTVYLQMNSLKPEDTEVYYCAAEISILPFVTPDTIYGYWGQGTQVTVSS | low polyreactivity
35 | QDQLVESVGGLVQAGGSLRLSCAASGGTFGPNAMGWYRQAPGKERELVAAISASGGITYYADSVKGRFTISRDNAKNTVYLQMNSLKPEDTAVYYCAAAITWIYSQAAFKIVQYDYWGQGTQVTVSS | low polyreactivity
36 | QVQLVDTAGGLVQAGGILRLSCAASGSTMYGYAMGWYRQTPGKERELVAAINTGGSTNYADSVKGRFTISRDNAKNTVYLQMNSLKPDDTAVYYCAASYSLSFWDKDDYWGQGTQVTVSS | low polyreactivity
37 | QVQLVESGGGLVQAGGSLRLSCAASGIIFYQYAMGRNRQAPGKERELVAAISSGVNTYYADSVKGRFTISRDNAKNTVYLQMNSLKPEDTAVYYCAAEKGRLYDWFDIYYIEYYYWGQGTQVTVSS | high polyreactivity
38 | QVQLVESGGGLVQAGGSLRLSCAASGSIFTPYAMGWYRQAPGKERELVAAITYSGGSTYYADSVKGRFTISRDNAKNTVYLQMNSLKPEDTAVYYCAAYFNIYGLEYDYWGQGTQVTVSS | high polyreactivity
39 | QVQLVESAGGLVQAGGSISLSCAASGIIFRYYAMGSYRQAPGKERELVAVITGRGGGTYYADSVKGRFTISRDNAKNTVYLQMNSLKPEDTAVYYCAKDFTGHYPKGFDYWGQGTQVTVSS | low polyreactivity
40 | QVQLVESGGGLVQAGGSLRLSCAASGLTFWYYDMGWYRQAPGKERELVAAISRCGGTTYYADSVKGRFTISRDNAKNSVYLQMNSLKPEDTAVYYCAAVSFGFWVTEYYYWGQGTQVNVSS | high polyreactivity
41 | QVQLVESGRGLVQAGGSLRLSCAASGFTFPDNTMGRYRQAPGKERVLVAGIRRRGGSTYYADSVKGRFTISRDHAKKTVSLQMNSLKPEDTAVYYCAASRAVTQYSGGGYWGQGTQVTVSS | high polyreactivity
42 | QVQLVESGGGLVQAGGSLRLSCAASGYIFPTYGMGWYRQAPGKERELVADITNNAGSTYYADSVKGRFTISRDKAKNTVYLQMKSLKPEDTEVYYCAADAYWPYWPYSYDYWGHGTQVTVSS | low polyreactivity
43 | QVQLVDSGGGLVKAGGSLRLSCAASGSTFDTNVMGWYRPAPGKERELVAAIDVSGGSTYYADSVKGRFTISRDNAKNYVYLQMYSLKPEDTAVFYSAAEDGLYGMDYWGQGSQVTVSS | low polyreactivity

— the nanobody polyreactivity screen of Harvey et al. (2022)
